Results: the DeepSol protein solubility set

test: soluble on expression in E. coli; label from the status in PepcDB or PDB records

**Q.** Which “soluble on expression in E. coli” value does the source give for “SKKVYAFDVQEQALGKTSQRLSDLGIENTELILDGHENLDHYVREPIRAAIFNLGYLPSADKSVITKPHTTLEAIEKILDRLEVGGRLAIMIYYGHDGGDMEKDAVLEYVIGLDQRVFTAMLYQPLNQINTPPFLVMLEKLQ” here?
**A.** not soluble

**Q.** With “SLAATGNASKPSLNSFYADGLGQLRNGLFSCFQPVFGYFGTKTTVEIEKSEDELWEIPFDAISELEWLGSGSQGAVFRGQLENRTVAVKKVNQLKETEIKHLRHLRHQNIIEFLGVCSKSPCYCIVMEYCSKGQLCTVLKSRNTITRELFAQWVKEIADGMHYLHQNKVIHRDLKSPNILISAEDSIKICDFGTSHMQKKMDSTMMSFCGTVSWMAPEMIKKQPCNEKVDVYSFGVVLWEMLTRETPYANIAQMAIIFGVGTNILSLPMPEEAPKGLVLLIKQCLSQKGRNRPSFSHIRQHWEIFKPELFEMTEEEWQLAWDSYREFAKCIQYPSTVTRDHGGPKSAFAMEEEIQRKRHEQLNHIKDIRNMYEMKLKRTNKMYDKLQGCFTELKLKESELAEWEKDLTER” as the sequence, how does the “soluble on expression in E. coli” value read?
**A.** soluble

**Q.** With “SLAPPAPPVSYGVEEDVFHPVRAKQGMVASVDATATQVGVDILKEGGNAVDAAVAVGYALAVTHPQAGNLGGGGFMLIRSKNGNTTAIDFREMAPAKATRDMFLDDQGNPDSKKSLTSHLASGTPGTVAGFSLALDKYGTMPLNKVVQPAFKLARDGFIVNDALADDLKTYGSEVLPNHENSKAIFWKEGEPLKKGDTLVQANLAKSLEMIAENGPDEFYKGTIAEQIAQEMQKNGGLITKEDLAAYKAVERTPISGDYRGYQVYSMPPPSSGGIHIVQILNILENFDMKKYGFGSADAMQIMAEAEKYAYADRSEYLGDPDFVKVPWQALTNKAYAKSIADQIDINKAKPSSEIRPGKLAPYESNQTTHYSVVDKDGNAVAVTYTLNTTFGTGIVAGESGILLNNQMDDFSAKPGVPNVYGLVGGDANAVGPNKRPLSSMSPTIVVKDGKTWLVTGSPGGSRIITTVLQMVVNSIDYGLNVAEATNAPRFHHQWLPDELRVEKGFSPDTLKLLEAKGQKVALKEAMGSTQSIMVGPDGELYGASDPRSVDDLTAGY” as the sequence, how does the “soluble on expression in E. coli” value read?
**A.** soluble

**Q.** Which “soluble on expression in E. coli” value does the source give for “SLAQTQLIQSEKMSSLGQLIAGVAHEINNPVNFIYGNLRYVAEYAQDLLHLLEKYQKFLPVTPPELESELDNIDLEFIIQDLPKLLDSMKLGTGRIVEIVQSLKNFSRHDEAEMKAVNIHDGIDGTLMILHHRLKAAIRRPKIEIVKDYAKLPLIECYPGKLNQVFMNILANAIDALEEGMGNEEIPPPTGQITIRTEVLDNQWVVIRIADNGPGMKEEVIRRIYDPFFTTKDVGKGTGLGMAISYQIVVDKHGGMLKCRSQPGEGTEFWIQIPVNCALADAAEEG” here?
**A.** not soluble

**Q.** With “SLDIRALGYFVAQTDAPQEWQHYAEQVLGMMTAPTDDGGFYIKMDERPYRMLVIPGADKRYFASGWELTGAKAYNNAKQTLLDKGIAFEEANKALCEQRRVQNILIVNDPAGNRHELYWGHVSDCQPFTSPQGVPAFITGDMGLGHTVLPAPNFDETFAFLTDVLGFELSDLFNFKPAPEADPIRIYFMHCGNARHHSLAICEFPVPSGCVHAMVEVENMTEVGRAHDRQQQHQVQLSATLGQHLNDKMTSFYMKTPSGFDLEYGFGGLQVENWEEHCAFEFSRVSLWGHDFSVGEKEG” as the sequence, how does the “soluble on expression in E. coli” value read?
**A.** not soluble

**Q.** Which “soluble on expression in E. coli” value does the source give for “SLEHFDDKSQLKRNGFYFSYNVDKENIEHWISAILFQVLKDKEDIVILSLGVDTLVGDSLGPLVGSILKRNGIPNVYGTLDRTVNASNIIKILDEIHERFKNPYILVVDAAVTAENNINDIVLRNGGFTPGFGVYRQLPTVGDFSLVGVVNKEDEREHNLIELLKKCRFDEVLKLARIISKILVLTFARMNKGDK” here?
**A.** soluble

**Q.** Which “soluble on expression in E. coli” value does the source give for “SLHELSIVESLIELCEENALNNKAYNVQEIYVKIGRLSGIEVDLFKRCFETFKENSNICKNAKLFIELAPLEILCLKCDQTSILEENVFKCPKCQSIEYKIIQGEDLHLMRLVMK” here?
**A.** soluble

**Q.** For “SLIENSHVKKDDIWPSGGQMTVKDLTAKYTEGGNAILENISFSISPGQRVGLLGRTGSGKSTLLSAFLRLLNTEGEIQIDGVSWDSITLEQWRKAFGVIPQKVFIFSGTFRKNLDPNAAHSDQEIWKVADEVGLRSVIEQFPGKLDFVLVDGGCVLSHGHKQLMCLARSVLSKAKILLLDEPSAHLDPVTYQIIRRTLKQAFADCTVILCEARIEAMLECDQFLVIEENKVRQYDSIQKLLNERSLFRQAISPSDRVKLFPHRNSSKCKSKPQIERETLVTMENVTAFWEEGGTPVLKDINFKIERGQLLAVAGSTGAGKTSLLMMIMGELEPSEGKIKHSGRISFCSQNSWIMPGTIKENIIFGVSYDEYRYRSVIKACQLEEDISKFAEKDNIVLGEGGITLSGGQRARISLARAVYKDADLYLLDSPFGYLDVLTEKEIFESCVCKLMANKTRILVTSKMEHLKKADKILILHEGSSYFYGTFSELQNLRPDFSSKLMG”, which “soluble on expression in E. coli” value is on record?
**A.** soluble

**Q.** Which “soluble on expression in E. coli” value does the source give for “SLKGLKAYRLDVPPMLADRGIDRMLAFAVPLTVRFRGIKVREGTLLHGPEGWGEWSPFWDYDPVESASWLRAGIEGATRRLPVARRDRVPINVTIPVVDADRAGRMAAESACLTAKVKVADPRSDLREDCRRVAAVREAMPDGHIRVDANTAWDVDAAVRAITELDAAAEGLEYVEQPCASVAELAQVRRKVNVPVAADESVRRAEDPLAVARAGAADLLIVKAQPLGGVARALEVIDATGLPAVVSSALDTSIGIGLATYLAAALPSLDHACGLGTIRLFQGDVSASPLLPVDGYLRPRRGEVDVEVEESDTDLCPRWSQRLALTVAALVERERS” here?
**A.** not soluble

**Q.** Which “soluble on expression in E. coli” value does the source give for “SLKTLFEVKQLLKQYGAFIYTRDLDADMQLMQMEMEELHRLGLIERGEFQQAMLVLKREQRAAKMGERAND” here?
**A.** soluble

**Q.** With “SLKVAIFDAFNGASGDMILASLLGVGISEEEIDEVVKALGIDVNYSMTTVSVRGISARRVEVEERDGERSFKEVLEIIRSSNLEEGVKKNAIAVFELIARAEGKVHGRDYREGVFHEVGADDAIFDVVCCVKAFENLKTAGYEFFATPVRAGSGFVEFSHGKYPVPPPAVLEILKSSNLEVVMDGEGELLTPTGAAILSHYCKPLKPFPIRVKEVSYGAGKRETDVPNVLRLILGETAFHDSIVVIETSVDDLSGEMIGYAMKKLLERDDVLDAVIIPAYGKKMRPASILKVISPTHRSEEVAAEVMRLTGSLGIRIIPVHHRLISERMEEVVKVEISGKEFDVRVKRSYPGFRHLKPEFDDIAVIADELNIPPHVVYREIVRKIVGAENADSNGQ” as the sequence, how does the “soluble on expression in E. coli” value read?
**A.** soluble

**Q.** Which “soluble on expression in E. coli” value does the source give for “SLLEECDFPTVKDIENEFEQLKEKNVRAVARLITMAEEQAKTKEAAVTLDDKLVSLKKLNQPSPPVLGITGTGGAGKSSLTDELVRRFLNEFTDKTVAILSIDPTKQKTGGALLGDRIRMNAIHSPRVFMRSLATRGSRTEISESIRDAIAVVKAAAYDLVIVETSGIGQGDAEITEIADISMYVMTSEYGAPSQLEKIDMIDFADVIAINKFDRKGSEDALRHVRKQYQRSHQRFDEPLEAMPVYGTIASQFNDIGTNTLFAAVIDILNKKCKTSWDTSIETSKEVMKQNIIIPPERTQYLRDIVQTVKQYK” here?
**A.** soluble

**Q.** With “SLLSIIPISAGIPLTETEPKQKWLEEWSKQLFVKVSIDSEYGWGEVLPAAFNSPALYADIVKRLEPSLNGMEISEPGIIWEKLRKLTFSGGYGPVIGAISGVDIALWDLKAKLSKLYLGDIFGKNEQKIARYASLSRYANYEAVIRASKNIVESGFKAIKLHQTKDDTLESVKRFREEIGYGVDLMVDLNCAMNIDEAIKFANSVQRYELKWVEEPIWPPDDLASLKKINDIVPVAAGENFFDFFKFEDAVHLEALTYYQPDVTKVGGLTPTLKILDLLKKNHEQVAFHNRPHNGWIGIFASIAAARMNGVDALIETPPNGVPSQYFRYNAMITSEVIAPNGVGLSIEPIEPLPQPKDEKILIFHD” as the sequence, how does the “soluble on expression in E. coli” value read?
**A.** soluble

**Q.** With “SLMQALARTGYAGPLSLEIFNDAFRAAPTEATAIDGLRSLIWIEELAEGAAWSEASPPAVGYDGVHFIEFTLDEESAAPLGEFFSALGFRHIGRHRSKNVELWHQGDIHLVLNFETDSFAHTFRLLHGTSVCAVGVRVNDLDSAVTRAAHYKAQWFRGPVGEGEMEIPALRGIEGSLVYLVDDAQAREMQWKTDFHLFEDGQDDDAGLINIDHISYVLPPTQLLSWLLFHRTVFGFDAGPEHEIADPHGMVVSQTVTSPDNSVRIPLTVSSARETLPGRFLSEHQGGVQQIAFASGDIFATIDAMLARGLPMLRIPANYYDDLAARFDLDDALLEAMRSRNILFDRNDDGDFFHAYTETFMGRFFFEVVERRGSYSQFGAVNAPIRLAAQAGQQREG” as the sequence, how does the “soluble on expression in E. coli” value read?
**A.** soluble

**Q.** With “SLPIASTATQMGSNKTRIFARQPAKAPPPLAWLSRPRDPRATAIAAAGQQSSRRVSKRELESHGSATDAWTAIHGVVYDITAYFRFHPGGAEILFIEAAGKDSTAVFDEMHPWVNVAWLLKDYRIGLYAPESEDDGGDDDDDDRTMTSPE” as the sequence, how does the “soluble on expression in E. coli” value read?
**A.** soluble

**Q.** With “SLPIDAVLPALRQALTTRHEAVLEAPPGAGKTTRVPLALLEETWLAGQTILMLEPRRLAARAAAERLASELGEKVGETVGYRIRLESCVGPKTRIEVVTEGILTRCLQDDPALEGVGLLIFDEFHVLPFA” as the sequence, how does the “soluble on expression in E. coli” value read?
**A.** not soluble

**Q.** For “SLQEAETAARLHEVHGSWQLACAAAAKKDSADAASSTGGETKPPCAIAQVQLEEKTRKLVVSVEFRLDDAATPDRLNGTMVLPFGLAVTKLFSVKSGNMRLQEVQVSTCLPVGCIVSFTPFIELVSALKAEQTLTIEAPDLQGRIVSFQLQGKGFPEALKRLGEVR”, which “soluble on expression in E. coli” value is on record?
**A.** not soluble

**Q.** With “SLQLKSEKARIILSGEPTLLIDKGKIDISALKSQRLNINDLMEELRLKNYFNVEDIEYAILETSGQISLIPKTHLTNATKEDLNLKVKQENVPITIILDGKVNTDNIKYLNKDADWLMKELKKNKIDSPKDVFLALIDSKGKFYYQKYNN” as the sequence, how does the “soluble on expression in E. coli” value read?
**A.** soluble

**Q.** Which “soluble on expression in E. coli” value does the source give for “SLSKKSVQTLEDIARLANVSRSTVSRALNNSPLISKQTRERIQAIAREHNFCLNVSGRNLRLRSSRTIAFVAPMCFPPVASAEHLFGLEMLGAIWSGLHELNYDCLIVHSASQDTDWVHRYLHSGRVDGFILMESSFKQTQIEALVQMKVPFIVWGMPVSPFNYCSVTGDNVAGGRLATEYLIRTGRQRIAFLGGLKGTLTVENRFKGYEQALQLAGRALDPALIVYGDYTYASGAAGMQRLLERAPDLDAVFVNSDLMAIAAINVIQESGRSVPADIAVVGYDDLSIAGYATLPLTTIRQNIPLAGKLLAQNLIQHIETGLVTNVTVPVELVIRKSEG” here?
**A.** not soluble

**Q.** Which “soluble on expression in E. coli” value does the source give for “SLSPRRLRLLLVDENPTARAVIGRRLSHRHYDVTVVEDGFAAQKTLIIQPSDIILIDMDLQLLPAIGTMEKIRAAHPAGHACIVMIGGASDTPKMIAALDAGADDHIVKPFDFDMLDARLRRVHARAEREG” here?
**A.** not soluble

**Q.** For “SLSRISPGNFSTNSYTSTIIKDVRFCLLLCRSLMEGWRITLLNEQEKTIFVDADACPVKDEILQTASEYEVQVLFVASFEHYQLSRSNEEKWKYVDPHKEAADLYIANHVKPGDIVVTQDIGLASLLLNRNVSVMSERGRLYKEDTIDFALEGRHFSGKQRRKGVYAKGPKKLNKEDRERFITLLQKILSNDEGILH”, which “soluble on expression in E. coli” value is on record?
**A.** not soluble

**Q.** Which “soluble on expression in E. coli” value does the source give for “SLSSVNCIEQTTEWTACSKSCGMGFSTRVTNRNRQCEMLKQTRLCMVRPCEQEPEQPTDKKGKKCLRTKKSLKAIHLQFKNCTSLHTYKPRFCGVCSDGRCCTPHNTKTIQAEFQCSPGQIVKKPVMVIGTCTCHTNCPKNNEAFLQELELKTTRGKM” here?
**A.** soluble
